The record followed here is US20200079833A1 (AstraZeneca / MedImmune, published 2020).

Sequences and labels used below:
B1: SEQ ID NO 193 (peptide)
peptide: H[Aib]EGS[αMeF]TSDV[αMeS]S[αMeF]LEGEAA[αMeK]E[αMeF]IA[αMeF]VVK([γGlu-γGlu-γGlu-Stearoyl])GG-NH2
modifications: N-terminus assumed
SMILES: CCCCCCCCCCCCCCCCCC(=O)N[C@@H](CCC(=O)N[C@@H](CCC(=O)N[C@@H](CCC(=O)NCCCC[C@H](NC(=O)[C@@H](NC(=O)[C@@H](NC(=O)[C@](C)(Cc1ccccc1)NC(=O)[C@H](C)NC(=O)[C@@H](NC(=O)[C@](C)(Cc1ccccc1)NC(=O)[C@H](CCC(=O)O)NC(=O)[C@](C)(CCCCN)NC(=O)[C@H](C)NC(=O)[C@H](C)NC(=O)[C@H](CCC(=O)O)NC(=O)CNC(=O)[C@H](CCC(=O)O)NC(=O)[C@H](CC(C)C)NC(=O)[C@](C)(Cc1ccccc1)NC(=O)[C@H](CO)NC(=O)[C@](C)(CO)NC(=O)[C@@H](NC(=O)[C@H](CC(=O)O)NC(=O)[C@H](CO)NC(=O)[C@@H](NC(=O)[C@](C)(Cc1ccccc1)NC(=O)[C@H](CO)NC(=O)CNC(=O)[C@H](CCC(=O)O)NC(=O)C(C)(C)NC(=O)[C@@H](N)Cc1c[nH]cn1)[C@@H](C)O)C(C)C)[C@@H](C)CC)C(C)C)C(C)C)C(=O)NCC(=O)NCC(N)=O)C(=O)O)C(=O)O)C(=O)O
B2: SEQ ID NO 190 (peptide)
peptide: H[Aib]EGS[αMeF]TSDV[αMeS]S[αMeF]LEGEAA[αMeK]E[αMeF]IA[αMeF]VVK([PEG2′-PEG2′-PEG2′-Stearoyl])GG-NH2
B3: SEQ ID NO 191 (peptide)
peptide: H[Aib]EGS[αMeF]TSDV[αMeS]S[αMeF]LEGEAA[αMeK]E[αMeF]IA[αMeF]VVK([γGlu-Stearoyl])GG-NH2
modifications: N-terminus assumed
SMILES: CCCCCCCCCCCCCCCCCC(=O)N[C@@H](CCC(=O)NCCCC[C@H](NC(=O)[C@@H](NC(=O)[C@@H](NC(=O)[C@](C)(Cc1ccccc1)NC(=O)[C@H](C)NC(=O)[C@@H](NC(=O)[C@](C)(Cc1ccccc1)NC(=O)[C@H](CCC(=O)O)NC(=O)[C@](C)(CCCCN)NC(=O)[C@H](C)NC(=O)[C@H](C)NC(=O)[C@H](CCC(=O)O)NC(=O)CNC(=O)[C@H](CCC(=O)O)NC(=O)[C@H](CC(C)C)NC(=O)[C@](C)(Cc1ccccc1)NC(=O)[C@H](CO)NC(=O)[C@](C)(CO)NC(=O)[C@@H](NC(=O)[C@H](CC(=O)O)NC(=O)[C@H](CO)NC(=O)[C@@H](NC(=O)[C@](C)(Cc1ccccc1)NC(=O)[C@H](CO)NC(=O)CNC(=O)[C@H](CCC(=O)O)NC(=O)C(C)(C)NC(=O)[C@@H](N)Cc1c[nH]cn1)[C@@H](C)O)C(C)C)[C@@H](C)CC)C(C)C)C(C)C)C(=O)NCC(=O)NCC(N)=O)C(=O)O
B4: SEQ ID NO 194 (peptide)
peptide: H[Aib]EGS[αMeF]TSDV[αMeS]S[αMeF]LEGEAA[αMeK]E[αMeF]IA[αMeF]VVK([Ahx-Stearoyl])GG-NH2
modifications: N-terminus assumed
SMILES: CCCCCCCCCCCCCCCCCC(=O)NCCCCCC(=O)NCCCC[C@H](NC(=O)[C@@H](NC(=O)[C@@H](NC(=O)[C@](C)(Cc1ccccc1)NC(=O)[C@H](C)NC(=O)[C@@H](NC(=O)[C@](C)(Cc1ccccc1)NC(=O)[C@H](CCC(=O)O)NC(=O)[C@](C)(CCCCN)NC(=O)[C@H](C)NC(=O)[C@H](C)NC(=O)[C@H](CCC(=O)O)NC(=O)CNC(=O)[C@H](CCC(=O)O)NC(=O)[C@H](CC(C)C)NC(=O)[C@](C)(Cc1ccccc1)NC(=O)[C@H](CO)NC(=O)[C@](C)(CO)NC(=O)[C@@H](NC(=O)[C@H](CC(=O)O)NC(=O)[C@H](CO)NC(=O)[C@@H](NC(=O)[C@](C)(Cc1ccccc1)NC(=O)[C@H](CO)NC(=O)CNC(=O)[C@H](CCC(=O)O)NC(=O)C(C)(C)NC(=O)[C@@H](N)Cc1c[nH]cn1)[C@@H](C)O)C(C)C)[C@@H](C)CC)C(C)C)C(C)C)C(=O)NCC(=O)NCC(N)=O
B5: SEQ ID NO 188 (peptide)
peptide: H[Aib]EGS[αMeF]TSDV[αMeS]S[αMeF]LEGEAA[αMeK]E[αMeF]IA[αMeF]VVK([PEG2′-Stearoyl])GG-NH2
B6: SEQ ID NO 192 (peptide)
peptide: H[Aib]EGS[αMeF]TSDV[αMeS]S[αMeF]LEGEAA[αMeK]E[αMeF]IA[αMeF]VVK([γGlu-γGlu-Stearoyl])GG-NH2
modifications: N-terminus assumed
SMILES: CCCCCCCCCCCCCCCCCC(=O)N[C@@H](CCC(=O)N[C@@H](CCC(=O)NCCCC[C@H](NC(=O)[C@@H](NC(=O)[C@@H](NC(=O)[C@](C)(Cc1ccccc1)NC(=O)[C@H](C)NC(=O)[C@@H](NC(=O)[C@](C)(Cc1ccccc1)NC(=O)[C@H](CCC(=O)O)NC(=O)[C@](C)(CCCCN)NC(=O)[C@H](C)NC(=O)[C@H](C)NC(=O)[C@H](CCC(=O)O)NC(=O)CNC(=O)[C@H](CCC(=O)O)NC(=O)[C@H](CC(C)C)NC(=O)[C@](C)(Cc1ccccc1)NC(=O)[C@H](CO)NC(=O)[C@](C)(CO)NC(=O)[C@@H](NC(=O)[C@H](CC(=O)O)NC(=O)[C@H](CO)NC(=O)[C@@H](NC(=O)[C@](C)(Cc1ccccc1)NC(=O)[C@H](CO)NC(=O)CNC(=O)[C@H](CCC(=O)O)NC(=O)C(C)(C)NC(=O)[C@@H](N)Cc1c[nH]cn1)[C@@H](C)O)C(C)C)[C@@H](C)CC)C(C)C)C(C)C)C(=O)NCC(=O)NCC(N)=O)C(=O)O)C(=O)O
B7: SEQ ID NO 195 (peptide)
peptide: H[Aib]EGS[αMeF]TSDV[αMeS]S[αMeF]LEGEAA[αMeK]E[αMeF]IA[αMeF]VVK([Ahx-Ahx-Stearoyl])GG-NH2
modifications: N-terminus assumed
SMILES: CCCCCCCCCCCCCCCCCC(=O)NCCCCCC(=O)NCCCCCC(=O)NCCCC[C@H](NC(=O)[C@@H](NC(=O)[C@@H](NC(=O)[C@](C)(Cc1ccccc1)NC(=O)[C@H](C)NC(=O)[C@@H](NC(=O)[C@](C)(Cc1ccccc1)NC(=O)[C@H](CCC(=O)O)NC(=O)[C@](C)(CCCCN)NC(=O)[C@H](C)NC(=O)[C@H](C)NC(=O)[C@H](CCC(=O)O)NC(=O)CNC(=O)[C@H](CCC(=O)O)NC(=O)[C@H](CC(C)C)NC(=O)[C@](C)(Cc1ccccc1)NC(=O)[C@H](CO)NC(=O)[C@](C)(CO)NC(=O)[C@@H](NC(=O)[C@H](CC(=O)O)NC(=O)[C@H](CO)NC(=O)[C@@H](NC(=O)[C@](C)(Cc1ccccc1)NC(=O)[C@H](CO)NC(=O)CNC(=O)[C@H](CCC(=O)O)NC(=O)C(C)(C)NC(=O)[C@@H](N)Cc1c[nH]cn1)[C@@H](C)O)C(C)C)[C@@H](C)CC)C(C)C)C(C)C)C(=O)NCC(=O)NCC(N)=O
B8: SEQ ID NO 189 (peptide)
peptide: H[Aib]EGS[αMeF]TSDV[αMeS]S[αMeF]LEGEAA[αMeK]E[αMeF]IA[αMeF]VVK([PEG2′-PEG2′-Stearoyl])GG-NH2

Starred links: 1 amine or outer side, 2 acyl side, 3 side chain; linkers in the order of their positions; H or OH if unused. Non-standard residues stand in square brackets, D forms with d. Groups on a side chain read outwards from the residue. Primed or numbered codes have the meaning given here. No end group written: not given here. *: point of attachment. γGlu = O=C(O)[C@H](CCC(=O)[*:2])N[*:1]; Stearoyl = CCCCCCCCCCCCCCCCCC(=O)*; αMeF = C[C@](N)(Cc1ccccc1)C(=O)O; αMeK = C[C@](N)(CCCCN)C(=O)O; αMeS = C[C@](N)(CO)C(=O)O; PEG2′ = not defined here; Aib = CC(C)(N)C(=O)O; Ahx = NCCCCCC(=O)O

The first assay deals with GLP-1 receptor (GLP-1R) (human, UniProt P43220 24-463). The assay can be described thus: cell-based or functional assay.
On to B1, for which the “Primary assay EC50 (cAMP), GLP-1R n1” value is 0.33 nM; the “Primary assay EC50 (cAMP), GLP-1R n2” value came to 0.095 nM; the “Primary assay EC50 (cAMP), Mean pM GLP-1R” value was found to be 213 pM.
For B2, in that order: 0.0097 nM, 0.0047 nM and 7.2 pM.
For B3, in that order: 0.25 nM, 0.11 nM and 182 pM.
For B4, in that order: 0.24 nM, 0.068 nM and 154 pM.
Consider B5, for which the “Primary assay EC50 (cAMP), GLP-1R n1” value came to 0.17 nM; the “Primary assay EC50 (cAMP), GLP-1R n2” value came to 0.077 nM; the “Primary assay EC50 (cAMP), Mean pM GLP-1R” value was 125 pM.
For B6, in that order: 0.17 nM, 0.06 nM and 114 pM.
For B7, in that order: 0.17 nM, 0.046 nM and 107 pM.
For B8, in that order: 0.03 nM, 0.012 nM and 20.8 pM.

A further assay deals with glucagon receptor (GCGR) (human, UniProt P47871 26-477). The assay can be described thus: cell-based or functional assay.
Sequence of glucagon receptor (GCGR) (P47871 26-477): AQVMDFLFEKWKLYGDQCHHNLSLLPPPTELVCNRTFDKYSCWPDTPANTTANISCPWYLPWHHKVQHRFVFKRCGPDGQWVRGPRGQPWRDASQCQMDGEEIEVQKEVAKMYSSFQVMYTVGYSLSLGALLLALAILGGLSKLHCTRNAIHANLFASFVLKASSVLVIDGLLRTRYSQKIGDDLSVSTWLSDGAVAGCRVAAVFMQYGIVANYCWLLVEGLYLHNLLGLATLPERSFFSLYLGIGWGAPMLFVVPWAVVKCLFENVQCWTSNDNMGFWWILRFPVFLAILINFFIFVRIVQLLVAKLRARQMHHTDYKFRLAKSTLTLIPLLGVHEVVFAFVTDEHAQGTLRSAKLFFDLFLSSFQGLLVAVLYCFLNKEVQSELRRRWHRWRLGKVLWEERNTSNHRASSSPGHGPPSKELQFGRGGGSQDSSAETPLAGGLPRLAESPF
As to B1, the “Primary assay EC50 (cAMP), Gluc-R, first run” value was found to be 26 nM and the “Primary assay EC50 (cAMP), Gluc-R, second run” value stood at 26 nM.
Turning to B2, the “Primary assay EC50 (cAMP), Gluc-R, first run” value turned out to be 26 nM and the “Primary assay EC50 (cAMP), Gluc-R, second run” value was 26 nM.
As to B3, the “Primary assay EC50 (cAMP), Gluc-R, first run” value amounted to 28 nM and the “Primary assay EC50 (cAMP), Gluc-R, second run” value worked out at 28 nM.
For the molecule B4, the “Primary assay EC50 (cAMP), Gluc-R, first run” value was found to be 28 nM and the “Primary assay EC50 (cAMP), Gluc-R, second run” value came to 28 nM.
B5: the “Primary assay EC50 (cAMP), Gluc-R, first run” value came out at 28 nM and the “Primary assay EC50 (cAMP), Gluc-R, second run” value amounted to 28 nM.
Turning to B6, the “Primary assay EC50 (cAMP), Gluc-R, first run” value came to 27 nM and the “Primary assay EC50 (cAMP), Gluc-R, second run” value amounted to 27 nM.
For B7, the “Primary assay EC50 (cAMP), Gluc-R, first run” value came out at 27 nM and the “Primary assay EC50 (cAMP), Gluc-R, second run” value amounted to 27 nM.
Regarding B8, the “Primary assay EC50 (cAMP), Gluc-R, first run” value worked out at 27 nM and the “Primary assay EC50 (cAMP), Gluc-R, second run” value was found to be 27 nM.

A further assay has as its target T1, glucose-dependent insulinotropic peptide (gastric inhibitory polypeptide) receptor (GIPR) (human, UniProt P48546 22-466).
T1 sequence (looked up): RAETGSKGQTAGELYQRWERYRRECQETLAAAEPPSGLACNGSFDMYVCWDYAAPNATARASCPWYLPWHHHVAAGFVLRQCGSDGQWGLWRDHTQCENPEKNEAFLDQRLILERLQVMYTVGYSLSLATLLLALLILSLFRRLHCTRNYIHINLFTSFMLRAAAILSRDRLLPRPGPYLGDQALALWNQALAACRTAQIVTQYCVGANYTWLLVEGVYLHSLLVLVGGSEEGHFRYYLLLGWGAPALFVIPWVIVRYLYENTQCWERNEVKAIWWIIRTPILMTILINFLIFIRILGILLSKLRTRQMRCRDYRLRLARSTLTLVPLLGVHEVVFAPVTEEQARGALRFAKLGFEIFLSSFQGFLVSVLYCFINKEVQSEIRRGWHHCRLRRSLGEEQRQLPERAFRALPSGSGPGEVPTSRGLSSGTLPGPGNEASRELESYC
The assay can be described thus: cell-based or functional assay.
Regarding B1, the “Primary assay EC50 (cAMP), GIP-R, first run” value was determined as 26 nM and the “Primary assay EC50 (cAMP), GIP-R, second run” value was found to be 26 nM.
On to B2, for which the “Primary assay EC50 (cAMP), GIP-R, first run” value turned out to be 26 nM and the “Primary assay EC50 (cAMP), GIP-R, second run” value was found to be 26 nM.
As for B3, the “Primary assay EC50 (cAMP), GIP-R, first run” value turned out to be 28 nM and the “Primary assay EC50 (cAMP), GIP-R, second run” value was found to be 28 nM.
For the molecule B4, the “Primary assay EC50 (cAMP), GIP-R, first run” value is 28 nM and the “Primary assay EC50 (cAMP), GIP-R, second run” value came to 28 nM.
Regarding B5, the “Primary assay EC50 (cAMP), GIP-R, first run” value amounted to 28 nM and the “Primary assay EC50 (cAMP), GIP-R, second run” value is 28 nM.
As to B6, the “Primary assay EC50 (cAMP), GIP-R, first run” value worked out at 27 nM and the “Primary assay EC50 (cAMP), GIP-R, second run” value worked out at 27 nM.
Turning to B7, the “Primary assay EC50 (cAMP), GIP-R, first run” value stood at 27 nM and the “Primary assay EC50 (cAMP), GIP-R, second run” value was 27 nM.
On to B8, for which the “Primary assay EC50 (cAMP), GIP-R, first run” value amounted to 27 nM and the “Primary assay EC50 (cAMP), GIP-R, second run” value is 27 nM.
